Consider 1 substance from article PMC6820532.

The target in this assay is I-Aα^d chain fused to the human IgG1 Fc knob (non-zippered KIH-based BDC2.5mi/IA^g7, α chain) (mouse | human). The experiment in a line: SDS stability on SDS-PAGE; 12% SDS-PAGE of the purified, co-expressed heterodimers; 0.83% SDS, left unboiled ('native') or boiled (100 °C for 5 min); fully denaturing with 20 mM β2-ME.

For “BDC2.5mi peptide tethered to the I-Aβ^g7 chain fused to the human IgG1 Fc hole (non-zippered KIH-based BDC2.5mi/IA^g7, β chain) (Fc fusion)”, the stoichiometry N amounted to 1.

The term stoichiometry N denotes a count of units in the complex or per binding partner.
